Experiment [1] concerns the target T1, human CTLA-4 protein (Acro, Catalog No. CT4-H52H9) (human, UniProt P16410 36-161).
T1 construct: Bought protein
Kind of experiment: BLI (Octet RED96e), antibody on AHC sensor, antigen as analyte 6.25-100 nM, 1:1 model. How it is done: Octet® RED96e (ForteBio) was used to detect the affinity of trispecific antibodies to human PD-1, CTLA-4 and VEGFA. The specific method was as follows: the AHC Sensor was immersed in PBST (PBS containing 0.02% Tween) buffer for 10 minutes to activate the Sensor. The ligand (antibody to be tested) was diluted to 5 μg/mL with PBST buffer. […] The diluted ligand and analyte were added to the corresponding wells at 200 μL/well in triplicate. Program parameter settings: loading: 180 s, association: 180 s, dissociation: 600 s, regeneration: Gly-HCl pH 1.5, 30s, regeneration 3 times. […] Curve fit acceptance criteria: Full R\hat{ }2≥0.95.
On the technique in general: BLI is a label-free optical method that tracks binding on a fibre tip over time.

Experiment [2] deals with T2, human CTLA-4 on the cell surface (human, UniProt P16410 36-223).
T2 construct: whole, on cells; also called CHO-hCTLA-4 cells; CHOK1-hCTLA4 cells
T2 sequence (P16410 36-223): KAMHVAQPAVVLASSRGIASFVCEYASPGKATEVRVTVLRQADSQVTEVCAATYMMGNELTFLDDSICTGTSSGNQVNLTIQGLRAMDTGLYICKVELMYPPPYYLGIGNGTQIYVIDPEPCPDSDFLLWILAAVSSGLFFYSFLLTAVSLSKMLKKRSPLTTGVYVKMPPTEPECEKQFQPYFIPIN
Kind of experiment: flow cytometry, CHO-hCTLA-4 cells, batch FACS#4. (Flow cytometry measures light scatter and fluorescence of single cells or particles in a stream.)

The target in experiment [3] is T2, human CTLA-4 on the cell surface. Kind of experiment: flow cytometry, CHO-hCTLA-4 cells, batch FACS#3.
For experiment [4], the target named is T1, human CTLA-4 protein (Acro, Catalog No. …). Kind of experiment: ELISA, plate coated with human CTLA-4 protein.
Experiment [5] deals with T3, human PD-1 on the cell surface (human, UniProt Q15116 25-288).
T3 construct: whole, on cells; also called cell surface PD-1
T3 sequence (Q15116 25-288): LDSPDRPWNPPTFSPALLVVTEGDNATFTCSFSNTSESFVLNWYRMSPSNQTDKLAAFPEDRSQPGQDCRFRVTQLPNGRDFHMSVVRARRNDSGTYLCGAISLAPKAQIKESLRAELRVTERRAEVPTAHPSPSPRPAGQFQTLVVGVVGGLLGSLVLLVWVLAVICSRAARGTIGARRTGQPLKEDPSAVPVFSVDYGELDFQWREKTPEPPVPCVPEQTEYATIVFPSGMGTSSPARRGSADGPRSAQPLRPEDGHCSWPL
Kind of experiment: flow cytometry on activated human T cells (CD3+), PE anti-human IgG Fc. How it is done: Human peripheral blood mononuclear cells (PBMCs, Miaoshun (Shanghai) Biotechnology Co., Ltd., Catalog No.: A19K154025) were rapidly thawed in a 37° C. water bath, resuspended in T cell isolating solution, and counted. After centrifugation at 400 g for 10 minutes, the supernatant was removed and the cells were resuspended to 5×10⁷ cells/mL with T cell separation buffer. T cells were isolated according to the procedure of a T cell isolation kit (Stemcell, Catalog No.: 19051), and the obtained T cells were resuspended in culture medium. The cells were counted using NucleoCounter NC-200 and the T cell density was adjusted to approximately 1×10⁶ cells/mL. Dynabeads containing anti-CD3 and anti-CD28 antibodies (Invitrogen™, Catalog No.: 11132D) and 10 ng/ml hIL-2 (Peprotech, Catalog No.: 200-02) were added and cultured in a 37° C., 5% CO₂ incubator for 3 days. After removing Dynabeads and supernatant, the activated T cells were resuspended in FACS buffer. The cell density was adjusted to about 1×10⁶ cells/mL, and 100 μL of cell solution was added into a 96-well U-bottom plate, 1×10⁵ cells/well. After centrifugation at 500 g for 5 minutes, the supernatant was discarded and 100 μL of the trispecific antibody solution of the present application serially diluted 3-fold with FACS buffer was added in triplicate, with a starting concentration of 200 nM. After mixing, incubated at 4° C. for 60 minutes. After centrifugation and washing three times with FACS buffer, 100 μL/well of PE anti-human IgG Fc (Biolegend, Catalog No.: 366903) was added and incubated at 4° C. for 50 minutes. After washing the plate three times with FACS buffer, 100 μL/well of BV421 anti-human CD3 antibody (OKT3) (Biolegend, Catalog No.: 317344) was added and incubated at 4° C. for 50 minutes. After washing the plate three times with FACS buffer, 70 μL/well of PBS solution was added to resuspend the cells, and the fluorescent signal on CD3 T cells was detected on a flow cytometer (BD Cellesta). The binding activity was fitted using a four-parameter model, and the EC₅₀ value of each antibody binding to T cells was calculated.

The target in experiment [6] is T3, human PD-1 on the cell surface. Kind of experiment: flow cytometry competition, 293T-hPD-1 cells, biotin-human PD-L1. The method, then: 50 μL of antibody solution serially diluted 3-fold in FACS buffer was added in triplicate, with a starting concentration of 200 nM. After mixing, incubated at 4° C. for 60 minutes. After washing three times with FACS buffer, 100 μL/well of 1:800 diluted PE Streptavidin was added and incubated at 4° C. for 50 min. After washing three times with FACS buffer, 150 μL/well of PBS was added to resuspend the cells, and the fluorescence signal was detected on a flow cytometer (BECKMAN COULTER cytoFLEX). The four-parameter model was used to fit the binding activity and the IC₅₀ value of the blocking activity of each antibody was calculated.

The target in experiment [7] is T4, human PD-1 protein (Acro, Catalog No. PD1-H5221) (human, UniProt Q15116 25-167).
T4 construct: Bought protein; also called human PD1-his; not shown: his tag
T4 sequence (Q15116 25-167 limits assumed): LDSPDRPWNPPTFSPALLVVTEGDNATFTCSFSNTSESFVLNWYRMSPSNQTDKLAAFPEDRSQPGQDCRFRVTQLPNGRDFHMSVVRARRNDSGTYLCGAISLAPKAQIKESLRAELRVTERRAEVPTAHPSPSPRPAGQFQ
Kind of experiment: ELISA, plate coated with human PD-1 protein. The method, then: (§1) ELISA was used to determine the activity of the trispecific antibodies binding to the PD-1 protein: 1 μg/mL human PD-1 protein (Acro, Catalog No.: PD1-H5221) was used to coat a high-adsorption 96-well ELISA plate and incubated at 4° C. overnight. On the next day, the plate was washed three times with PBST solution and blocked with 1% BSA-PBS solution at 37° C. for 1 hour. At the same time, 3-fold gradient dilutions of the antibody were prepared with 1% BSA-PBS solution, with a starting concentration of 10 nM. The antibodies of each gradient concentration were added to the blocked 96-well ELISA plate at 100 µL/well in triplicate and incubated at 37° C. for 1 hour. The plate was then washed three times with 0.05% PBST solution, and 100 μL/well of HRP-labeled secondary antibody (Sigma, Catalog No.: A0170) diluted at 1:5000 was added to the ELISA plate and incubated at 37° C. for 1 hour. The plate was washed three times with 0.05% PBST solution and developed with TMB. The absorbance of the 96-well ELISA plate at 450 nm was detected by an ELISA reader. The OD₄₅₀ value was fitted using a four-parameter model to calculate the EC₅₀ value of each antibody binding to PD-1.

Experiment [8] deals with T2, human CTLA-4 on the cell surface. In words: flow cytometry competition, 293T-hPD-1-hCTLA-4 cells (PD-1 co-expressed), biotin-human CD80. The method, then:
PD-1 and CTLA-4 are co-expressed on functionally exhausted T cells in the tumor microenvironment, and the expression level of PD-1 is higher than that of CTLA-4. […] 200 μL of the cells were added to a 96-well U-bottom plate, approximately 1.4×10⁵ cells/well. After centrifugation at 300 g for 5 minutes, the supernatant was discarded. […] After washing three times with FACS buffer, 100 μL/well of 1:800 diluted PE Streptavidin was added and incubated at 4° C. for 50 min. After washing three times with FACS buffer, 150 μL/well of PBS was added to resuspend the cells, and the fluorescence signal was detected on a flow cytometer (BECKMAN COULTER cytoFLEX). The binding activity was fitted using a four-parameter model, and the IC₅₀ value of the blocking activity of each antibody was calculated.

Experiment [9] deals with human PD-1 protein (Acro, PD1-H5257) (human, UniProt Q15116 25-167). In words: competitive ELISA, PD-1 coated, biotin-PD-L1 as labelled ligand. How it is done: The next day, the plate was washed three times with PBS solution and blocked with 1% BSA-PBS solution at 37° C. for 1 hour. […] 100 μL of the antibody-protein mixture was added to each well of the blocked 96-well ELISA plate and incubated at 37° C. for 1 hour. After washing four times with PBST, 100 μL of Strep-HRP (BD, Catalog No. 554066) diluted 1:5000 was added to each well of the ELISA plate and incubated at 37° C. for 1 hour. After washing 4 times with PBST, TMB was used for color development. The absorbance at 450 nm and 630 nm was detected by a microplate reader, and OD450-OD630 was calculated. The fluorescence intensity was fitted using a four-parameter model, and the IC₅₀ value of the blocking activity of each antibody was calculated.
human PD-1 protein (Acro, PD1-H5257), sequence (Q15116 25-167 limits assumed): as above
(An ELISA detects its analyte on a solid surface through an enzyme-linked reagent.)

The target in experiment [10] is T5, human VEGF165-his protein (Acro, Catalog No. VE5-H5248) (human, UniProt P15692-4 27-191).
T5 construct: Bought protein; also called hVEGF165-His; VEGFA; not shown: his tag
T5 sequence (P15692 other isoform, or with tags, fused parts or gaps limits assumed): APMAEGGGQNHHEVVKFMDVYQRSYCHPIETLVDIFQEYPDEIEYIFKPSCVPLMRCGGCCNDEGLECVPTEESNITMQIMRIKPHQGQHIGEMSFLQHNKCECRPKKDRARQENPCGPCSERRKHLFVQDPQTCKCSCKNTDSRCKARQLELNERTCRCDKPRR
In words: ELISA, plate coated with human VEGF165-his. The method, then:
as §1
The binding activity of the trispecific antibodies to VEGFA protein was detected by ELISA method as described in Section 2.1. The used human VEGF165-his protein was purchased from Acro, Catalog No.: VE5-H5248.

Usually Kd stands for the equilibrium constant for the complex coming apart. Low values mean tighter binding, high ones weaker binding. Usually EC50 stands for the midpoint of the concentration-response curve. The low end stands for greater potency, the high end for weaker potency. For orientation: IC50 means the concentration that gives 50% inhibition.

T1 sequence (P16410 36-161 limits assumed): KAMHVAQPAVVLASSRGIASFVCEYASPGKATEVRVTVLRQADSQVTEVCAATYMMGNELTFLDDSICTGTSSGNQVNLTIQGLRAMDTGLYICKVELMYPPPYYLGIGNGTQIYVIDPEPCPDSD

B1: 202F1 (VHH)
VHH: EVQLLESGGGLVQPGGSLRLSCAASGSIFSINHMAWYRQAPGKQRELVAGVNSRGTTNYVDSVKGRFTISRDNSKNTLYLQMNSLRAEDTAVYYCRALGGAVAAWGQGTLVTVSS
notes: also called anti-CTLA-4 nanobody (202F1)
In [1], B1 yielded a Kd of 0.203 nM.

B2: 202F1-hIgG1 (antibody, V domains shown)
VH: EVQLLESGGGLVQPGGSLRLSCAASGSIFSINHMAWYRQAPGKQRELVAGVNSRGTTNYVDSVKGRFTISRDNSKNTLYLQMNSLRAEDTAVYYCRALGGAVAAWGQGTLVTVSS
notes: also called anti-CTLA-4 nanobody 202F1 with hIgG1 constant region
As to B2, the figures for the EC50 in experiment [2], in experiment [3] and in experiment [4] were 1.05 nM, 1.71 nM and 0.078 nM, respectively.

B3: camrelizumab (antibody, V domains shown)
VH: EVQLVESGGGLVQPGGSLRLSCAASGFTFSSYMMSWVRQAPGKGLEWVATISGGGANTYYPDSVKGRFTISRDNAKNSLYLQMNSLRAEDTAVYYCARQLYYFDYWGQGTTVTVSS
VL: DIQMTQSPSSLSASVGDRVTITCLASQTIGTWLTWYQQKPGKAPKLLIYTATSLADGVPSRFSGSGSGTDFTLTISSLQPEDFATYYCQQVYSIPWTFGGGTKVEIK
Turning to B3, the EC50 in [5] was 0.473 nM.

B4: sintilimab (antibody, V domains shown)
VH: QVQLVQSGAEVKKPGSSVKVSCKASGGTFSSYAISWVRQAPGQGLEWMGLIIPMFDTAGYAQKFQGRVAITVDESTSTAYMELSSLRSEDTAVYYCARAEHSSTGTFDYWGQGTLVTVSS
VL: DIQMTQSPSSVSASVGDRVTITCRASQGISSWLAWYQQKPGKAPKLLISAASSLQSGVPSRFSGSGSGTDFTLTISSLQPEDFATYYCQQANHLPFTFGGGTKVEIK
For B4, a half-maximal response in [5] (EC50) required 0.231 nM.

B5: HC010-F14 (trispecific antibody, human IgG4 S228P)
heavy 1: EVQLVESGGGLVQPGGSLRLSCAASGFTFSSYGMSWVRQAPGKCLEWVSTISGGGRDTYYPDSVKGRFTISRDNSKNTLYLQMNSLRAEDTAVYYCARQNGITWFADWGQGTLVTVSSGGGGSGGGGSGGGGSGGGGSDIQMTQSPSSLSASVGDRVTITCRASESVDNYGISFMNWYQQKPGKAPKLLIYAASNQGSGVPSRFSGSGSGTDFTLTISSLQPEDFATYYCQQSKEVPWTFGCGTKVEIKGGGGSGGGGSGGGGSGGGGSESKYGPPCPPCPAPEFLGGPSVFLFPPKPKDTLMISRTPEVTCVVVDVSQEDPEVQFNWYVDGVEVHNAKTKPREEQFNSTYRVVSVLTVLHQDWLNGKEYKCKVSNKGLPSSIEKTISKAKGQPREPQVYTLPPCQEEMTKNQVSLWCLVKGFYPSDIAVEWESNGQPENNYKTTPPVLDSDGSFFLYSRLTVDKSRWQEGNVFSCSVMHEALHNHYTQKSLSLSLGAGGGGSGGGGSGGGGSGGGGSEVQLVESGGGLVQPGGSLRLSCAASGYTFTNYGMNWVRQAPGKCLEWVGWINTYTGEPTYAADFKRRFTFSLDTSKSTAYLQMNSLRAEDTAVYYCAKYPHYYGSSHWYFDVWGQGTLVTVSSGGGGSGGGGSGGGGSGGGGSDIQMTQSPSSLSASVGDRVTITCSASQDISNYLNWYQQKPGKAPKVLIYFTSSLHSGVPSRFSGSGSGTDFTLTISSLQPEDFATYYCQQYSTVPWTFGCGTKVEIK
heavy 2: EVQLLESGGGLVQPGGSLRLSCAASGSIFSINHMAWYRQAPGKQRELVAGVNSRGTTNYVDSVKGRFTISRDNSKNTLYLQMNSLRAEDTAVYYCRALGGAVAAWGQGTLVTVSSGGGGSGGGGSGGGGSGGGGSESKYGPPCPPCPAPEFLGGPSVFLFPPKPKDTLMISRTPEVTCVVVDVSQEDPEVQFNWYVDGVEVHNAKTKPREEQFNSTYRVVSVLTVLHQDWLNGKEYKCKVSNKGLPSSIEKTISKAKGQPREPQVCTLPPSQEEMTKNQVSLSCAVKGFYPSDIAVEWESNGQPENNYKTTPPVLDSDGSFFLVSRLTVDKSRWQEGNVFSCSVMHEALHNRFTQKSLSLSLGAGGGGSGGGGSGGGGSGGGGSEVQLVESGGGLVQPGGSLRLSCAASGYTFTNYGMNWVRQAPGKCLEWVGWINTYTGEPTYAADFKRRFTFSLDTSKSTAYLQMNSLRAEDTAVYYCAKYPHYYGSSHWYFDVWGQGTLVTVSSGGGGSGGGGSGGGGSGGGGSDIQMTQSPSSLSASVGDRVTITCSASQDISNYLNWYQQKPGKAPKVLIYFTSSLHSGVPSRFSGSGSGTDFTLTISSLQPEDFATYYCQQYSTVPWTFGCGTKVEIK
notes: also called H010-F14
B5: the IC50 in experiment [6] was > 200 nM; in [8], 0.116 nM; in experiment [9], 2.41 nM. For the same molecule, the values for the EC50 in experiment [7], in experiment [10] and in experiment [4] were 0.472 nM, 0.096 nM and 0.734 nM, respectively.

(Values after patent US20260116960A1 (SHANGHAI HONGCHENG BIOPHARMACEUTICAL, published 2026).)
